{"source": "patent US20250326813A1", "binders": {"B1": {"name": "EP569 (clone 2021EP22-E03), E. coli-produced (ligand)", "chain": "APASSSTKKTQLQLEHLLLDLQMILNGINNYKNPKLTRMLTFKFYMPKKATELKHLQCLEEELKPLEEVLNLAQSKNFHLRRKESINHMIVVFPVLKGSETTFMCEYADETATIVEFLNRWITFSQSIISTLT"}}, "molecular_target": "T1, human IL2Rβ Fc fusion protein (human) (UniProt P14784)", "T1 sequence (looked up)": "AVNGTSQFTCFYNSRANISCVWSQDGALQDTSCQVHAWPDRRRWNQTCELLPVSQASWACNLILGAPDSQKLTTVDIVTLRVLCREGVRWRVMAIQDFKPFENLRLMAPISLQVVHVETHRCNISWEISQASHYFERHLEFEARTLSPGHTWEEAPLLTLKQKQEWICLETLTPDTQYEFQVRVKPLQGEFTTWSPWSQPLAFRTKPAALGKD", "test": "ELISA, single concentration, anti-flag detection, E. coli-produced clone", "data": [{"binder": "B1", "values": [{"measurement": "OD450 nm", "result": 0.871, "unit": "OD450"}]}]}
